Data from US20240102068A1, “C-GLYCOSYLTRANSFERASE VARIANTS AND USE THEREOF” (KOREA ADVANCED INSTITUTE OF SCIENCE AND TECHNOLOGY, priority 2021, published 2024).
Where a chain is given by its changes, count along the chain named. In names and notes the source's numbering stands.

Legend:
enzyme kinetics of DnrF = substrate: Cc1c(C(=O)O)c(O)cc2c1C(=O)c1c(O)cc(O)cc1C2=O; test: enzyme kinetics of DnrF; assay type: biochemical, Streptomyces peucetius; settings: other: means ± SD, n = 3
[1] = substrate: Cc1c(C(=O)O)c(O)cc2c1C(=O)c1c(O)cc(O)cc1C2=O; test: enzyme kinetics of DnrF P217K; assay type: biochemical, Streptomyces peucetius; settings: other: means ± SD, n = 3
FK = test: dcII production from FK by C-glycosyltransferase candidates and GtCGT mutants in FK-producing E. coli, flask culture; assay type: cell-based; settings: mutants transformed into FK strains, flask culture
Experimental: Flask culture was carried out under the following conditions. Colonies were seeded into 10 mL of LB medium supplemented with appropriate concentrations of antibiotics, followed by culture overnight at 37° C. The culture fluid thus prepared was passaged into a 250 mL baffled flask containing 50 mL of R/2 medium supplemented with 3 g/L yeast extract and 20 g/L glucose (with 0.45 g/L ascorbic acid if necessary), followed by culture at 30° C. and 200 rpm. The composition of R/2 medium (pH 6.8) was as follows (per liter): 2 g of (NH4)2HPO4, 6.75 g of KH2PO4, 0.85 g of citric acid, 0.7 g of MgSO4·7H2O, and 5 ml of trace metal solution (TMS) [10 g of FeSO4·7H2O, 2.25 g of ZnSO4·7H2O, 1 g of CuSO4·5H2O, 0.5 g of MnSO4·5H2O, 0.23 g of Na2B4O7·10H2O, 2 g of CaCl2·2H2O, and 0.1 g of (NH4)6Mo7O24 per liter of 5 M HCl]. When OD600 of the culture fluid reached 0.6-0.8, 1 mM isopropyl β-D-1-thiogalactopyranoside (IPTG) was added to induce exogenous gene expression, followed by culture for 48 hours.
After culture, production analysis was performed under the following conditions. After flask culture, 50 mL of the culture fluid was centrifuged at 4,000 g for 30 minutes, and then the supernatant was desalted and concentrated. Here, Oasis HLB cartridges (Water) were used. The supernatant was concentrated 1-fold for FK, 30-fold for KA, 45-fold for dell, and 200-fold for carminic acid. The concentrated sample was re-dissolved in an appropriate volume of DMSO and impurities were then removed therefrom using a 0.22 μm PTFE filter. The prepared sample was analyzed by MS (LC/MSD VL; Agilent) coupled with HPLC (1100 series; Agilent). An Eclipse XDB-C18 column was used, 0.1% formic acid was used as buffer A, and methanol was used as buffer B. Analysis was performed in an ESI negative mode. For more accurate analysis of carminic acid, LC-MS/MS was performed using an HPLC Triple Quadrupole Mass Spectrometer (LCMS-8050, Shimadzu) (MRM mode).
Flask culture started by seeding colonies from LB agar plates into test tubes containing 10 mL of LB. As such, an appropriate concentration of antibiotics was added, followed by culture overnight at 37° C. at 220 rpm. 1 mL of the seed culture thus prepared was inoculated into a 250 mL baffled flask containing 50 mL of R/2 medium (supplemented with 3 g/L yeast extract and 20 g/L glucose), followed by culture at 30° C. and 200 rpm. The composition of R/2 medium was as follows (pH 6.8, per 1 L): 2 g of (NH4)2HPO4, 6.75 g of KH2PO4, 0.85 g of citric acid, 0.8 g of MgSO4·7H2O, and 5 ml of trace metal solution (TMS). The composition of TMS was as follows (based on 0.1 M HCl, per 1 L): 10 g of FeSO4·7H2O, 2.25 g of ZnSO4·7H2O, 1 g of CuSO4·5H2O, 0.58 g of MnSO4·5H2O, 0.02 g of Na2B4O7·10H2O, 2 g of CaCl2·2H2O, and 0.1 g of (NH4)6Mo7O24·4H2O. When OD600 of the culture fluid reached 0.6-0.8, 0.5 mM IPTG was added to induce exogenous enzyme expression, followed by culture for 48 hours. In all experiments for producing flavokermesic acid, kermesic acid, dcII, and carminic acid, 0.45 g/L of ascorbic acid was further added.
The production of carminic acid (CA) from FK was performed by two biosynthesis pathways, both of which require monooxygenase and C-glycosyltransferase. FK may be oxidized into KA or may be C-glycosylated into dcII. […] In order for the enzyme to have activity, however, it must be glycosylated, and since it also has a transmembrane helix and a signal peptide, successful expression in cells such as E. coli is considered difficult.
For the enzymes selected above, pCDF-DcCGT, pCDF-MiCGT, pCDF-SfCGT, pCDF-EnCGT, pCDF-OsCGT, pCDF-FeCGT, pCDF-GmCGT, pCDF-AvCGT, pCDF-AvCGT, pCDF-ZmCGT, and pCDF-GtCGT were constructed, and all genes except for the iroB gene amplified from genomic DNA of E. coli Nissle using the iroB_gib_F primer and the iroB_gib_R primer were artificially synthesized and inserted into the NdeI site of the pCDFDuet-1 plasmid using Gibson assembly. […]

aloesone = test: Aloesin production from aloesone by GtCGT and variants in E. coli BL21(DE3), flask culture; assay type: cell-based; settings: for aloesin production increase: compared to conventional concentration of 0.3 μg/L (ALS strain with GtCGT^V93Q/Y193F); for aloesin production: variant on pCDF-RpALS-GtCGT plasmid (additional RpALS), with pWAS-anti-pabA, pRSF-RpALS, pBBR1-zwf
Experimental: Also, in LC-MS/MS for aloesin analysis, MS (Agilent 6550 iFunnel Q-TOF LC/MS System) coupled with ultra HPLC (UHPLC; 1290 Infinity II LC System; Agilent) was used. Here, an Eclipse-plus C18 column was used, and 0.1% formic acid was used as buffer A, and acetonitrile to which 0.1% formic acid was added was used as buffer B.
Thereafter, in order to test the production of aloesin, the pCDF-GtCGT or pCDF-GtCGT^V93Q/Y193F plasmid was transformed into the BL21(DE3) strain containing pWAS-anti-pabA, pRSF-RpALS, and pBBR1-zwf plasmids, followed by flask culture.
Similarly to the test for increased production of aloesone, RpALS was additionally introduced to increase aloesin production. To this end, pCDF-RpALS-GtCGT^V93Q/Y193F was constructed instead of introducing pCDF-GtCGT^V93Q/Y193F. Specifically, RpALS was amplified from pCDF-RpALS using pCDFDuet F and pCDFDuet R primers, and inserted into the NcoI and BamHI sites of the pCA plasmid through Gibson assembly. Thereafter, four plasmids, namely pRSF-RpALS, pCDF-RpALS-GtCGT^V93Q/Y193F, pWAS-anti-pabA, and pBBR1-zwf, were transformed into E. coli BL21(DE3), which was named an ALS strain.
(§1) Mutagenesis for a specific sequence was performed in the same manner as in Example 2. Here, plasmids containing gene mutants were constructed using pCDF-RpALS-GtCGT^V93Q/Y193F as a template and using primer pairs shown in Table 11 below. The plasmids thus constructed were transformed into the BL21 (DE3) strain along with three plasmids, namely pWAS-anti-pabA, pRSF-RpALS, and pBBR1-zwf, followed by flask culture under the same conditions as in Example 3 using the strains thus constructed. The concentration of aloesin produced was measured in an MRM mode of the HPLC Triple Quadrupole Mass Spectrometer (LCMS-8050, Shimadzu) of the KAIST Biocore Center.
as §1, with “13” for “11”

B1: Streptomyces peucetius DnrF (aklavinone 12-hydroxylase), wild type, SEQ ID NO: 2 (Streptomyces peucetius) (protein)
chain: MALTKPDVDVLVVGGGLGGLSTALFLARRGARVLLVERHASTSVLPKAAGQNPRTMELFRFGGVADEILATDDIRGAQGDFTIKVVERVGGRVLHSFAESFEELVGATEQCTPMPWALAPQDRVEPVLVAHAAKHGAEIRFATELTSFQAGDDGVTARLRDLGTGAESTVSARYLVAADGPRSAIRESLGITRHGHGTLAHFMGVIFEADLTAVVPPGSTGWYYLQHPDFTGTFGPTDRPNRHTFYVRYDPERGERPEDYTPQRCTELIRLAVDAPGLVPDILDIQAWDMAAYIADRWREGPVLLVGDAAKVTPPTGGMGGNTAIGDGFDVAWKLAAVLRGEAGERLLDSYGAERSLVSRLVVDESLAIYAQRMAPHLLGSVPEERGTAQVVLGFRYRSTAVAAEDDDPEPTEDPRRPSGRPGFRAPHVWIEQDGTRRSTVELFGDCWVLLAAPEGGAWGQAAARAAADLGVRLDVHLVGRDVAAPSGELTRTYGIGRAGASLVRPDGVVAWRTAVAPGAEAQDQLSTLLTRLLAR
notes: purification details not in the excerpts
Km (enzyme kinetics of DnrF): 56.75 ± 4.68 µM | Vmax (enzyme kinetics of DnrF): 0.99 µM/min | Vmax/Km (enzyme kinetics of DnrF): 0.0175 min⁻¹

B2: Streptomyces peucetius DnrF (aklavinone 12-hydroxylase, SEQ ID NO: 2) variant P217K (Streptomyces peucetius; P217K) (protein)
chain: B1 chain with M1V, P217K
notes: as for B1
Km [1]: 43.31 ± 2.64 µM | Vmax [1]: 1.01 µM/min | Vmax/Km [1]: 0.0234 min⁻¹

B3: V132A (protein, listed as Gentiana triflora)
chain: MGSLTNNDNLHIFLVCFIGQGVVNPMLRLGKAFASKGLLVTLSAPEIVGTEIRKANNLNDDQPIKVGSGMIRFEFFDDGWESVNGSKPFDVWVYINHLDQTGRQKLPIMLKKHEETGTPVSCLILNPLVPWAADVADSLQIPCATLWVQSCASFSAYYHYHHGLVPFPTESEPEIDVQLPGMPLLKYDEVPDYLHPRTPYPFFGTNILGQFKNLSKNFCILMDTFYELEHEIIDNMCKLCPIKPIGPLFKIPKDPSSNGITGNFMKVDDCKEWLDSRPTSTVVYVSVGSVVYLKQEQVTEMAYGILNSEVSFLWVLRPPSKRIGTEPHVLPEEFWEKAGDRGKVVQWSPQEQVLAHPATVGFLTHCGWNSTQEAISSGVPVITFPQFGDQVTNAKFLVEEFKVGVRLGRGELENRIITRDEVERALREITSGPKAEEVKENALKWKKKAEETVAKGGYSERNLVGFIEEVARKTGTK
KA production compared with wild-type GtCGT (FK): higher KA production than wild-type GtCGT

B4: GtCGT V93Q/Y193F/P385A: GtCGT^V93Q/Y193F with additional P385A (Table 12 No. 15) (protein, listed as Gentiana triflora)
chain: B3 chain with V93Q, A132V, Y193F, P385A
aloesin production increase (aloesone): ≥ 14.1 fold | aloesin production (aloesone): 4.23 µg/L

B5: GtCGT V93Q/Y193F/I323S: GtCGT^V93Q/Y193F with additional I323S (Table 10 No. 12) (protein, listed as Gentiana triflora)
chain: B3 chain with V93Q, A132V, Y193F, I323S
aloesin production increase (aloesone): ≥ 25.8 fold | aloesin production (aloesone): 7.75 µg/L
